We go through 20 sequences from US7749968B2, “Peptides for targeting the prostate specific membrane antigen” (The Johns Hopkins University, priority 2002, dated 2010).

The assay deals with T1, Tag-xPSM (Homo sapiens, UniProt Q04609).
T1 construct: made in house; host or cells: Sf-9 insect cells infected with recombinant baculovirus; protein harvested from the media
Put plainly: Tag-xPSM phage display selection (agarose/cellulose), sequencing of selected phage. The class given is binding. The protocol: 100 μl of S-protein agarose (2× in RPMI 1640+1% Fetal Bovine Serum (FBS) and 100 μl of CBind Resin (10 mg/ml in RPMI 1640+1% FBS) without fusion protein were used to negatively select the original phage display library. 2×10^11 plaque forming units (PFU) of 1.29×10^9 different sequence phage were incubated with each aliquot of resin for 1 hr at 37° C., while rotating. The S-tag agarose was pelleted and supernatant saved as the agarose counter-selected pool. The cellulose resin was transferred onto 200 μl of 9:1 dibutyl phthalate:cyclohexane and the resin pelleted through the organic phase. The aqueous supernatant was saved as the cellulose counter-selected pool. Each counter selected pool was then added to tag-xPSM agarose or cellulose resin and incubated for 1 hr at 37° C., while rotating. The tag-xPSM agarose was pelleted and washed three times in RPMI 1640+1% FBS. The agarose pellet was then saved for phage isolation. The Tag-xPSM cellulose was transferred onto 200 μl of 9:1 dibutyl phthalate:cyclohexane and the resin pelleted through the organic phase. The tube was then snap frozen in liquid nitrogen to isolate the resin pellet. Over 75% of Tag-xPSM remained bound to the cellulose resin through these conditions. The resulting phage-bound tag-xPSM agarose and tag-xPSM cellulose were then resuspended in 200 μl of log phage ER2738 cells and phage allowed to infect 1 hour at room temperature. A small aliquot was taken at this time to quantitate the number of phage bound per round of selection. The remaining PSMA bound phage was then amplified, tittered, and applied to the next round of phage display. There was only one counter-selection round, followed by a total of five positive selection rounds, applying between 10^10 to 10^11 PFU per round. The final round of selection included cross-selections, where selected phage pools from one PSMA background where applied to the other. Individual phage were isolated and sequenced from rounds three through five.
Individual phage plaques were amplified for 5 hours in ER2738 cells at 37° C. Amplified supernatant was incubated 1:1 with PEG/NaCl buffer (20% PEG 8000, 2.5 M NaCl) for 10 minutes at room temperature. Phage were microfuged 10 minutes at 20,000 g, 4° C. The phage pellet was suspended in 100 μl Iodide buffer (10 mM Tris-HCl, pH 8.0, 1 mM EDTA, 4M NaI). Single stranded DNA (ssDNA) was precipitated with 250 μl of 100% ethanol, pelleted, and washed in 70% ethanol. Each ssDNA pellet was suspended in 30 μl 10 mM Tris, pH 7.4. Each phage was sequenced using the Amersham DYE ET mix, by incubating 6 μl ssDNA, 1 μl of 5 μM-96 pill Sequencing Primer ([…]; SEQ ID NO:108), and 8 μl of DYE ET mix in a 96 well PCR plate and amplified by 30 cycles of 95° C. for 20 seconds, 50° C. for 15 seconds, and 60° C. for 1 minute. Sequencing reaction products were spun through G50-fine Sephadex column plates, prepared on Millipore-multiscreen plates. Products were sequenced and analyzed on the MegaBACE capillary sequencer. All sequences, minus the flanking cysteines, were aligned using the Baylor College of Medicine Clustal W1.8 Global Progressive Alignment (available online) with data presented by Boxshade 3.21 software (available online through the Swiss Institute for Bioinformatics).
2×10^11 plaque-forming units (PFU) of the library was incubated with each aliquot of resin for one hour at 37° C., while rotating. The S-tag agarose was pelleted and the supernatant saved as the agarose counter-selected pool. The cellulose resin was transferred onto a 9:1 ratio of dibutyl phthalate:cyclohexane and the resin centrifuged through the organic phase. The aqueous supernatant was saved as the cellulose counter-selected pool. Each counter selected pool was then added to tag-xPSM agarose or cellulose resin, respectively, and incubated for one hour at 37° C., while rotating (see FIG. 2). The Tag-xPSM agarose was pelleted, washed, and saved for phage isolation. […]

T1 sequence (Q04609 44-750 limits assumed): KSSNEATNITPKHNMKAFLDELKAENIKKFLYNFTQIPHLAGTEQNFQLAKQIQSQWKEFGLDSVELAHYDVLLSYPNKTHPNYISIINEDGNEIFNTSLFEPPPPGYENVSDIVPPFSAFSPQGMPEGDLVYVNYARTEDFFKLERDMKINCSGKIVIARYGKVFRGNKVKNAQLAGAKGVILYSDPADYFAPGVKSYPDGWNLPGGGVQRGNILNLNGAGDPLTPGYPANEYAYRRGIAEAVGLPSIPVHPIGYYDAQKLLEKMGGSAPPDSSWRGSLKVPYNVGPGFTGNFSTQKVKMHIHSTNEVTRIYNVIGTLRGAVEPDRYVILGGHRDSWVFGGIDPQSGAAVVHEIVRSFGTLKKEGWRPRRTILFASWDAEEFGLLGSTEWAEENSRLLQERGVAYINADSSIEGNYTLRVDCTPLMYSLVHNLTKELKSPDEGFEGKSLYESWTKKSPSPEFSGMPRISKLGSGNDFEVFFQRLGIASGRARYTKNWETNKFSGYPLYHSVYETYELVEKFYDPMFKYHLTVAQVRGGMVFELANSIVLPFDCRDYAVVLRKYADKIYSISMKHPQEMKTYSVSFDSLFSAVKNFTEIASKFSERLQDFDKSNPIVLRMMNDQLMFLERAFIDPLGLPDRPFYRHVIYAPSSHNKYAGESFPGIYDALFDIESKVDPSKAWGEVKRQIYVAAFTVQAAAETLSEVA

As for CAPNKYKHC [SEQ ID NO:11], where the note is “Agarose”, the “Number of times sequence was found, Round 3” value (shortened to “Number … Round 3”) was 0/0; the “Number of times sequence was found, Round 4” value (“Number … Round 4” below) is given as 1; the “Number of times sequence was found, Round 5” value (from here on “Number … Round 5”) was 0/0. Also, under “Cellulose”, the “Number … Round 3” value is listed as 0/0; the “Number … Round 4” value came out at 0; the “Number … Round 5” value was 0/0.

Turning to CDAVRYPVC [SEQ ID NO:20], for the setting “Agarose”, the “Number … Round 3” value was 0/0; the “Number … Round 4” value stood at 0; the “Number … Round 5” value is listed as 0/0. Also, for the setting “Cellulose”, the “Number … Round 3” value was 0/0; the “Number … Round 4” value came out at 1; the “Number … Round 5” value is listed as 0/0.

In the case of CFPQSSDRC [SEQ ID NO:24], under “Agarose”, the “Number … Round 3” value stood at 1; the “Number … Round 4” value is given as 0/0; the “Number … Round 5” value is given as 0/0. For the setting “Cellulose”, the “Number … Round 3” value is 0; the “Number … Round 4” value was 0/0; the “Number … Round 5” value is on record as 0/0.

Consider CGLPTRTAC [SEQ ID NO:16], for which, under “Agarose”, the “Number … Round 3” value was 0/0; the “Number … Round 4” value is 0; the “Number … Round 5” value was 0/0. In addition, for the setting “Cellulose”, the “Number … Round 3” value was 0/0; the “Number … Round 4” value is 1; the “Number … Round 5” value is reported as 0/0.

As to CHKFQSKMC [SEQ ID NO:17], where the note is “Agarose”, the “Number … Round 3” value is 0/0; the “Number … Round 4” value is reported as 0; the “Number … Round 5” value is given as 0/0. For the setting “Cellulose”, the “Number … Round 3” value was 0/0; the “Number … Round 4” value is 1; the “Number … Round 5” value is 0/0.

In the case of CHTKHASHC [SEQ ID NO:6], under “Agarose”, the “Number … Round 3” value is reported as 0/0; the “Number … Round 4” value is reported as 0/0; the “Number … Round 5” value amounted to 0. Where the note is “Cellulose”, the “Number … Round 3” value is recorded as 0/0; the “Number … Round 4” value is on record as 0/0; the “Number … Round 5” value is 1.

As to CHTSLKTHC [SEQ ID NO:14], where the note is “Agarose”, the “Number … Round 3” value is given as 0/0; the “Number … Round 4” value came to 0; the “Number … Round 5” value is given as 0/0. Also, for the setting “Cellulose”, the “Number … Round 3” value is on record as 0/0; the “Number … Round 4” value is 1; the “Number … Round 5” value was 0/0.

In the case of CHTTTDVYC [SEQ ID NO:25], under “Agarose”, the “Number … Round 3” value was found to be 1; the “Number … Round 4” value is recorded as 0/0; the “Number … Round 5” value is on record as 0/0. For the setting “Cellulose”, the “Number … Round 3” value came to 0; the “Number … Round 4” value was 0/0; the “Number … Round 5” value was 0/0.

CKHSVSPSC [SEQ ID NO:18]: under “Agarose”, the “Number … Round 3” value is recorded as 0/0; the “Number … Round 4” value was 0; the “Number … Round 5” value is given as 0/0. Moreover, for the setting “Cellulose”, the “Number … Round 3” value was 0/0; the “Number … Round 4” value is 1; the “Number … Round 5” value is given as 0/0.

As for CKPSMMSYC [SEQ ID NO:8], where the note is “Agarose”, the “Number … Round 3” value was 0/0; the “Number … Round 4” value is 0/0; the “Number … Round 5” value is on record as 0. Under “Cellulose”, the “Number … Round 3” value was 0/0; the “Number … Round 4” value was 0/0; the “Number … Round 5” value is 1.

As to CKPTNQHKC [SEQ ID NO:19], for the setting “Agarose”, the “Number … Round 3” value is listed as 0/0; the “Number … Round 4” value was found to be 0; the “Number … Round 5” value is 0/0. Further, under “Cellulose”, the “Number … Round 3” value is given as 0/0; the “Number … Round 4” value is given as 1; the “Number … Round 5” value was 0/0.

In the case of CLKSHSHQC [SEQ ID NO:15], where the note is “Agarose”, the “Number … Round 3” value is listed as 0/0; the “Number … Round 4” value is given as 0; the “Number … Round 5” value is listed as 0/0. In addition, where the note is “Cellulose”, the “Number … Round 3” value was 0/0; the “Number … Round 4” value worked out at 1; the “Number … Round 5” value is on record as 0/0.

On to CLSSNSSLC [SEQ ID NO:28], for which, for the setting “Agarose”, the “Number … Round 3” value came to 0; the “Number … Round 4” value is 0/0; the “Number … Round 5” value was 0/0. Under “Cellulose”, the “Number … Round 3” value is 1; the “Number … Round 4” value is 0/0; the “Number … Round 5” value is 0/0.

For the sequence CLSTTISYC [SEQ ID NO:21], for the setting “Agarose”, the “Number … Round 3” value was 0/0; the “Number … Round 4” value is reported as 0; the “Number … Round 5” value is listed as 0/0. Besides, for the setting “Cellulose”, the “Number … Round 3” value is reported as 0/0; the “Number … Round 4” value was determined as 1; the “Number … Round 5” value was 0/0.

CNKSSLGTC [SEQ ID NO:13]: for the setting “Agarose”, the “Number … Round 3” value was 0/0; the “Number … Round 4” value amounted to 0; the “Number … Round 5” value was 0/0. Moreover, for the setting “Cellulose”, the “Number … Round 3” value was 0/0; the “Number … Round 4” value was 1; the “Number … Round 5” value is given as 0/0.

Consider CPIMLSEPC [SEQ ID NO:26], for which, under “Agarose”, the “Number … Round 3” value is given as 1; the “Number … Round 4” value is given as 0/0; the “Number … Round 5” value is 0/0. In addition, where the note is “Cellulose”, the “Number … Round 3” value stood at 0; the “Number … Round 4” value is listed as 0/0; the “Number … Round 5” value was 0/0.

With CPSVNTKQC [SEQ ID NO:9], where the note is “Agarose”, the “Number … Round 3” value is listed as 0/0; the “Number … Round 4” value is 0/0; the “Number … Round 5” value came out at 0. Besides, for the setting “Cellulose”, the “Number … Round 3” value is recorded as 0/0; the “Number … Round 4” value is given as 0/0; the “Number … Round 5” value worked out at 1.

For CQFRHSAQC [SEQ ID NO:23], under “Agarose”, the “Number … Round 3” value is recorded as 1; the “Number … Round 4” value is 0/0; the “Number … Round 5” value is listed as 0/0. For the setting “Cellulose”, the “Number … Round 3” value was found to be 0; the “Number … Round 4” value is reported as 0/0; the “Number … Round 5” value is 0/0.

Regarding CQTPYDLRC [SEQ ID NO:10], where the note is “Agarose”, the “Number … Round 3” value is on record as 0/0; the “Number … Round 4” value is given as 0/0; the “Number … Round 5” value amounted to 0. For the same sequence, where the note is “Cellulose”, the “Number … Round 3” value is given as 0/0; the “Number … Round 4” value is recorded as 0/0; the “Number … Round 5” value was 1.

In the case of CSHNDTRHC [SEQ ID NO:4], under “Agarose”, the “Number … Round 3” value is on record as 0/0; the “Number … Round 4” value is on record as 0/0; the “Number … Round 5” value came to 0. For the same sequence, under “Cellulose”, the “Number … Round 3” value is 0/0; the “Number … Round 4” value is listed as 0/0; the “Number … Round 5” value is listed as 1.
